Measured values reported in the supplement of paper PMC6757056.
± gives the standard deviation of the averaged measurements.

B1: library; a variant is named by its letters at N, in order (parent)
chain: GCUGUCACCGGAAUACCAGCAUCGUCUUGAUGCCCUUGGAAGUCCGGUCUGAUGAGUCCNNNNNGGACGAAACAGC

Legend:
[1] = variants of: B1; assay: FACS-Seq fitted mean relative fluorescence mCherry/BFP without ligand (log10 relative fluorescence); higher = higher reporter protein expression; conditions: HEK293T, ligand present: no
Method: (§1)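 Hammerhead (sTRSV) ribozyme switch libraries with a ligand aptamer grafted on stem I and a randomized N4-6 loop II, cloned into the 3' UTR of mCherry and transiently transfected into HEK293T cells; RNA-Seq 72 h post transfection with ligand added 1 h before transfection; RNA read count / plasmid DNA read count normalized to the non-cleaving sTRSVctl (x100), log10; sequences with >100 DNA reads. FACS-Seq: lentiviral library sorted into 6 bins after 48 h ligand, log-normal fit mean of mCherry/BFP scaled to controls. Printed sequences are partial switch sequences.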

[2] = variants of: B1; assay: normalized RNA/DNA level with ligand (relative to sTRSVctl = 100) (log10 (% of sTRSVctl)); higher = less ribozyme self-cleavage, higher mRNA level; conditions: ligand concentration (+) RNA-Seq: 5 mM, HEK293T, reporter: mCherry (pCS4076), ligand present: yes
Method: as §1

[3] = variants of: B1; assay: normalized RNA/DNA level without ligand (relative to sTRSVctl = 100) (log10 (% of sTRSVctl)); higher = less ribozyme self-cleavage, higher mRNA level; conditions: HEK293T, reporter: mCherry (pCS4076), ligand present: no
Method: as §1

[4] = variants of: B1; assay: FACS-Seq fitted mean relative fluorescence mCherry/BFP with ligand (log10 relative fluorescence); ligand concentration (+) FACS-Seq: 1 mM; higher = higher reporter protein expression; conditions: HEK293T, ligand present: yes
Method: as §1

| Variant | FACS-Seq fitted mean (log10) [1] | normalized RNA/DNA level with ligand (log10) [2] | normalized RNA/DNA level without ligand (log10) [3] | FACS-Seq fitted mean (log10) [4] |
| --- | --- | --- | --- | --- |
| GAACA | 0.228 ± 0.096 | 1.92 ± 0.025 | 1.6 ± 0.015 | 0.116 ± 0.032 |
| GAACC | 0.828 ± 0.017 | 2 ± 0.024 | 1.87 ± 0.13 | 0.834 ± 0.11 |
| GAACU | 0.973 ± 0.11 | 2.033 ± 0.0061 | 1.83 ± 0.12 | 0.975 ± 0.024 |
| AACAU | 0.214 ± 0.0061 | 1.93 ± 0.1 | 1.75 ± 0.067 | 0.439 ± 0.045 |
| AACAC | 0.834 ± 0.025 | 1.94 ± 0.048 | 1.91 ± 0.075 | 0.925 ± 0.089 |
| AACAA | 0.377 ± 0.039 | 1.99 ± 0.086 | 1.45 ± 0.25 | 0.704 ± 0.013 |
| AACAG | 0.587 ± 0.0063 | 1.855 ± 0.014 | 1.78 ± 0.055 | 0.677 ± 0.035 |
| AACCG | 0.924 ± 0.031 | 2 ± 0.031 | 1.89 ± 0.071 | 1.13 ± 0.098 |
| AACCU | 0.83 ± 0.037 | 2.06 ± 0.1 | 1.949 ± 0.017 | 0.698 ± 0.016 |
| AACCC | 0.867 ± 0.012 | 2.042 ± 0.014 | 1.97 ± 0.031 | 0.862 ± 0.045 |
| AACCA | 0.923 ± 0.12 | 2.001 ± 0.0053 | 1.82 ± 0.047 | 0.908 ± 0.065 |
| UAAGU | 0.651 ± 0.24 | 2.03 ± 0.044 | 1.86 ± 0.088 | 0.751 ± 0.013 |
| UAAGG | 0.645 ± 0.086 | 2.1 ± 0.067 | 1.89 ± 0.041 | 0.739 ± 0.044 |
| UAAGA | -0.11 ± 0.071 | 1.9752 ± 0.00034 | 1.48 ± 0.16 | 0.22 ± 0.072 |
| UAAGC | 1.08 ± 0.011 | 1.94 ± 0.059 | 1.92 ± 0.1 | 1.04 ± 0.073 |
| CAAUC | 0.844 ± 0.034 | 1.94 ± 0.053 | 1.83 ± 0.13 | 0.825 ± 0.014 |
| CAAUA | 0.192 ± 0.018 | 1.96 ± 0.054 | 1.16 ± 0.17 | 0.785 ± 0.033 |
| CAAUU | 0.59 ± 0.019 | 2.02 ± 0.033 | 1.65 ± 0.096 | 0.775 ± 0.021 |

| Variant | FACS-Seq fitted mean (log10) [1] | normalized RNA/DNA level with ligand (log10) [2] | normalized RNA/DNA level without ligand (log10) [3] | FACS-Seq fitted mean (log10) [4] |
| --- | --- | --- | --- | --- |
| GAAUA | 1.08 ± 0.19 | 1.85 ± 0.068 | 1.627 ± 0.0033 | 0.942 ± 0.085 |
| GAAUC | 0.7173 ± 0.0037 | 1.962 ± 0.011 | 1.855 ± 0.015 | 0.683 ± 0.059 |
| GAAUG | 0.627 ± 0.023 | 1.9 ± 0.028 | 1.6 ± 0.093 | 0.713 ± 0.037 |
| GAAUU | 0.234 ± 0.038 | 2.02 ± 0.045 | 1.75 ± 0.018 | 0.4307 ± 0.002 |
| UAAUG | 0.816 ± 0.076 | 1.929 ± 0.0084 | 1.814 ± 0.0095 | 0.887 ± 0.071 |
| UAAUA | 0.553 ± 0.011 | 2.03 ± 0.11 | 1.56 ± 0.15 | 0.868 ± 0.015 |
| UAAUU | 0.64 ± 0.039 | 2 ± 0.023 | 1.84 ± 0.062 | 0.613 ± 0.056 |
| UAAUC | 0.913 ± 0.018 | 1.9 ± 0.047 | 1.94 ± 0.098 | 0.9083 ± 0.0059 |
| CACCA | 0.7294 ± 0.00094 | 1.97 ± 0.083 | 1.8 ± 0.071 | 0.792 ± 0.053 |
| CACCU | 0.774 ± 0.091 | 2.06 ± 0.075 | 1.78 ± 0.097 | 0.9241 ± 4.2e-05 |
| CACCC | 0.8 ± 0.07 | 1.92 ± 0.06 | 1.93 ± 0.024 | 0.762 ± 0.018 |
| CAAAC | 0.851 ± 0.024 | 1.92 ± 0.024 | 1.82 ± 0.054 | 0.833 ± 0.033 |
| CAAAU | 0.264 ± 0.0079 | 1.946 ± 0.0043 | 1.6 ± 0.19 | 0.399 ± 0.048 |
| CAAAA | 0.173 ± 0.019 | 1.95 ± 0.029 | 1.31 ± 0.062 | 0.67 ± 0.071 |
| GACUU | 0.702 ± 0.12 | 2.1 ± 0.051 | 1.79 ± 0.038 | 0.696 ± 0.051 |
| GACUG | 0.5397 ± 0.0016 | 1.98 ± 0.076 | 1.804 ± 0.0069 | 0.61 ± 0.081 |
| UAGAC | 0.814 ± 0.036 | 1.91 ± 0.03 | 1.91 ± 0.09 | 0.723 ± 0.008 |
| UAGAG | 0.823 ± 0.13 | 1.94 ± 0.063 | 1.73 ± 0.093 | 0.842 ± 0.013 |
